{
  "source": "patent US6958223",
  "about": "(UNITED STATES SURGICAL, dated 2005)",
  "proteins": {"B1": {"name": "D4, 219 amino acid C-terminal fragment of human collagen Type I (α1), hydroxyproline-containing (other)", "chain": "MGPPGLAGPPGESGREGAPGAEGSPGRDGSPGAKGDRGETGPAGPPGAPGAPGAPGPVGPAGKSGDRGETGPAGPAGPVGPAGARGPAGPQGPRGDKGETGEQGDRGIKGHRGFSGLQGPPGPPGSPGEQGPSGASGPAGPRGPPGSAGAPGKDGLNGLPGPIGPPGPRGRTGDAGPVGPPGPPGPPGPPGPPSAGFDFSFLPQPPQEKAHDGGRYYRA", "modifications": "trans-4-hydroxyproline in place of proline at all proline positions (100% substitution by mass spectrometry and amino acid analysis)", "notes": "also called D4-α1; protein D4"}},
  "biological_target": "the molecule itself",
  "experiment": "circular dichroism of purified D4 in 0.1M sodium phosphate pH 7.0 after two days at 4° C.; self-association into homotrimeric helices",
  "procedure": "The solution was incubated at 4° C. for two days to allow triple helices to form prior to analysis. Spectra were obtained on an Aviv model 62DS spectropolarimeter (Yale University, Molecular Biophysics and Biochemistry Department). A 1 mm path length quartz suprasil fluorimeter cell was used. Following a 10 min. incubation period at 4° C., standard wavelength spectra were recorded from 260 to 190 nm using 10 sec acquisition times and 0.5 nm scan steps. This spectrum is characterized by a negative ellipticity at 198 nm and a positive ellipticity at 221 nm. The magnitudes of both of these absorbances was greater in neutral pH buffer compared to acidic conditions. […] See, e.g., Venugopal et al., Biochemistry, 33, 7948 (1994). Heating at 85° C. for five minutes prior to obtaining the CD spectrum decreased the magnitude of the absorbance at 198 nm and abolished the absorbance at 221 nm (FIG. 33). This behavior is also typical of the triple helical structure of collagen. See, R. S. Bhatnagar et al., Circular Dichroism and the Conformational Analysis of Biomolecules G. D. Fasman, Ed., supra. A thermal melt profile of D4 conducted as above in phosphate buffer gave a melting temperature of about 29° C. […] (See, A. Rossi, et al., Biochemistry 35, 6048 (1996)).",
  "data": [
    {"protein": "B1", "values": [
      {"measurement": "binding result", "value": "binds"}
    ]}
  ]
}
